Experimental data taken from patent US20250250357A1.
Blank lines part the entries; values can stand above or below the binder they belong to.

Assays:
[1] = target: monkey MSLN full-length protein (NCBI: XP_028696439.1) expressed on HEK293T-monkey MSLN cells (monkey); experiment: FACS on HEK293T-monkey MSLN cells
[2] = target: human MSLN-R3-3 polypeptide (human); experiment: ELISA; antibody 1 nM
[3] = target: human MSLN full-length protein (NCBI: AAH09272.1) on stably transfected CHO-K1 or HEK293T cells (human) (UniProt Q13421); experiment: FACS on CHO-K1-hMSLN-2C8 cells; antibody […]
[4] = target: human MSLN full-length protein (NCBI: AAH09272.1) on stably transfected CHO-K1 or HEK293T cells (human) (UniProt Q13421); experiment: FACS on CHO-K1-hMSLN-2C8 cells; antibody 4 nM
[5] = target: human MSLN full-length protein (NCBI: AAH09272.1) on stably transfected CHO-K1 or HEK293T cells (human) (UniProt Q13421); experiment: FACS on CHO-K1-hMSLN-2C8 cells; antibody 20 nM
[6] = target: human MSLN full-length protein (NCBI: AAH09272.1) on stably transfected CHO-K1 or HEK293T cells (human) (UniProt Q13421); experiment: FACS on CHO-K1-hMSLN-2C8 cells; antibody 0.8 nM
[7] = target: human MSLN full-length protein (NCBI: AAH09272.1) on stably transfected CHO-K1 or HEK293T cells (human) (UniProt Q13421); experiment: FACS on CHO-K1-hMSLN-2C8 cells; antibody 100 nM
[8] = target: human MSLN full-length protein (NCBI: AAH09272.1) on stably transfected CHO-K1 or HEK293T cells (human) (UniProt Q13421); experiment: FACS on CHO-K1-hMSLN-2C8 cells; antibody 0.032 nM
[9] = target: human MSLN full-length protein (NCBI: AAH09272.1) on stably transfected CHO-K1 or HEK293T cells (human) (UniProt Q13421); experiment: FACS on CHO-K1-hMSLN-2C8 cells; antibody 0.0064 nM
[10] = target: human MSLN full-length protein (NCBI: AAH09272.1) on stably transfected CHO-K1 or HEK293T cells (human) (UniProt Q13421); experiment: FACS on CHO-K1-hMSLN-2C8 cells; antibody 0.00128 nM
[11] = target: human MSLN-R3 protein (Met487-Ser606 of NCBI AAH09272.1) expressed on HEK293T-hMSLN-R3 cells (human) (UniProt Q13421); experiment: FACS on HEK293T-hMSLN-R3 cells
[12] = target: human MSLN on OVCAR3 tumor cells (human) (UniProt Q13421); experiment: FACS, OVCAR3 cells
[13] = target: human MSLN-R3-3 polypeptide (human); experiment: ELISA, coated antigen, antibody 1 nM
[14] = target: human MSLN-R3-3 polypeptide (human); experiment: ELISA, coated antigen, antibody 10 nM
[15] = target: human MSLN-R3-3 polypeptide (human); experiment: ELISA, coated antigen, antibody 0.1 nM
[16] = target: human MSLN-R3-3 polypeptide (human); experiment: ELISA, coated antigen, antibody 100 nM
[17] = target: human MSLN-R3-3 polypeptide (human); experiment: ELISA, coated antigen, antibody 0.01 nM
[18] = target: human MSLN-R3-3 polypeptide (human); experiment: ELISA, coated antigen, antibody 0.001 nM
[19] = target: human MSLN-R3-3 polypeptide (human); experiment: ELISA, coated antigen, antibody 0.0001 nM
[20] = target: human MSLN-R3-3 polypeptide (human); experiment: ELISA, coated antigen, no antibody (blank)

human MSLN-R3 protein (Met487-Ser606 of NCBI AAH09272.1) expressed on HEK293T-hMSLN-R3 cells (human), sequence (Q13421 495-614): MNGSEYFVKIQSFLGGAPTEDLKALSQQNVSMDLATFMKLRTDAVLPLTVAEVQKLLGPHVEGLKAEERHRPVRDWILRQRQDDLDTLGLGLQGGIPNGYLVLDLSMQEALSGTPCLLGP
human MSLN on OVCAR3 tumor cells (human), sequence (Q13421 other isoform, or with tags, fused parts or gaps): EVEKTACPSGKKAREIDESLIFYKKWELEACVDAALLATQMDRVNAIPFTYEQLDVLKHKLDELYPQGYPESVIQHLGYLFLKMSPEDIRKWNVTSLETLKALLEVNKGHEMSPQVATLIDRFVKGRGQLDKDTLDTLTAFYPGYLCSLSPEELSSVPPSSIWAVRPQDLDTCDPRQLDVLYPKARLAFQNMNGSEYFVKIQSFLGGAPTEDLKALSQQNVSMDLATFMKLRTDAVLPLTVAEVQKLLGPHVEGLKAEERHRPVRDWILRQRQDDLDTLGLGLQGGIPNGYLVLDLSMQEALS

B1: S009-F1.59.1 (antibody, human IgG1, kappa, V domains shown)
VH: EVKLEGSGGGLVQPGGSMMLSCVATGFTFSSYWMNWVRQSPDRGLEWVAEIRLKSNGFAAFYAESVKGRFTISRDDSKSSVYLQMNNLRTEDTGIYYCTYFVHWGQGILVTVSE
VL: DIVLTQSPTSLAVSLGQRATISCRTSESVEYFGTILIQWYQQKPGQPPKLLIFGASNVESGVPARFSGSGSGTDFSLNIHPVEEEDIAMYFCQQNRKVPYTFGGGTTLELKR
Maximum mean fluorescence intensity [1]: 1420

B4: S009-F2.47.1 (antibody, human IgG1, kappa, V domains shown)
VH: QVQLQQPGAELVKPGASVKLSCKASGYTFTSYWMHWVKQRPGQGLEWIGMIHPNSGSTNYNEKFKSKATLTVDKSSSTAYMQLSSLTSEDSAVYYCARPVVPYWYFDVWGTGTTVTVSS
VL: DIVMTQSQKFMSTTVGDRVSITCKASQNVGTAVAWYQQKPGQSPKLLIYSASNRYTGVPDRFTGSGSGTDFTLTISNMQSEDLADYFCQQSSSYPLTFGAGTKLELKR
Maximum mean fluorescence intensity [11]: 4580

B5: S009-F1.62.9 (antibody, human IgG1, kappa, V domains shown)
VH: EVQLQQSGADLVKPGASVKLSCTVFGLNFKDTFMHWVRQRPEQGLEWIGRIDPANDNSIYGPKFQDKATITADTSSNTAYLHLSSLTSEDTAVYYCLYFDNWGHGTTLTVSS
VL: DIVMTQAASSEPVTPGESVSISCRSDKSLLHSNGHNYLYWFLQRPGQSPHLLIYRMSNLASGVPDRFSGSGSGTAFTLRISRVEAEDVGVYYCMQHLEYPLTFGAGTKLELKR
Maximum mean fluorescence intensity [1]: 965

B7: Tab106 (YP218, hIgG1) (antibody, V domains shown)
VH: QQQLEESGGGLVKPEGSLTLTCKASGFDLGFYFYACWVRQAPGKGLEWIACIYTAGSGSTYYASWAKGRFTISKASSTTVTLQMTSLAAADTATYFCARSTANTRSTYYLNLWGPGTLVTVSS
VL: DVVMTQTPASVSEPVGGTVTIKCQASQRISSYLSWYQQKPGQRPKLLIFGASTLASGVPSRFKGSGSGTEYTLTISDLECADAATYYCQSYAYFDSNNWHAFGGGTEVVVRT
OD450 nm [2]: 0.98
OD450 [13]: 0.33
OD450 [14]: 1.35
OD450 [15]: 0.08
OD450 [16]: 1.94
OD450 [17]: 0.05
OD450 [18]: 0.05
OD450 [19]: 0.06
OD450 [20]: 0.07
FACS fluorescence intensity [3]: 270
FACS fluorescence intensity [4]: 2780
FACS fluorescence intensity [5]: 6270
FACS fluorescence intensity [6]: 812
FACS fluorescence intensity [7]: 6720
FACS fluorescence intensity [8]: 119
FACS fluorescence intensity [9]: 77
FACS fluorescence intensity [10]: 68

Results, then the binder that gave them:

Maximum mean fluorescence intensity [1]: 1000
B2: S009-F2.58.8 (antibody, human IgG1, kappa, V domains shown)
VH: QVQLLQSGAELAKPGASVKLSCKASGYTFTSYWVHWVKQRPGQGLEWIGYINPNSGYTKYNQKFKDKATLTADKSSSTAYMQLSSLTYEDSAVYYCADHYYGSSRDYFDYWGQGTTLTVSS
VL: QIVLTQSPAIMSASPGEKVTMTCSASSSVSYMYWYQQRPGSSPRLLIYDTSNLASGVPVRFSGSGSGTSYSLTISRMEAEDAATYYCQQWNSYPYTFGGGTKLEIKR

OD450 nm [2]: 0.07
FACS fluorescence intensity [3]: 264
FACS fluorescence intensity [4]: 2960
FACS fluorescence intensity [5]: 6930
FACS fluorescence intensity [6]: 767
FACS fluorescence intensity [7]: 7860
FACS fluorescence intensity [8]: 120
FACS fluorescence intensity [9]: 70
FACS fluorescence intensity [10]: 63
B3: Tab107 (YP3, hIgG1) (antibody, V domains shown)
VH: QEQLVESGGGLVQPGASLTLTCTASGIDFSRYYMCWVRQAPGKGLEGIACIYIGGSGSTYYASWAKGRFTISKASSTTVTLQMTSLTAADTATYFCARGTNLNYIFRLWGPGTLVTVSS
VL: DVVMTQTPSPVSAAVGGTVTIKCQASQSINNGLAWYQQKPGQPPRLLIYSASNLESGVPSRFKGSGSGTEFTLTISDLECDDAATYYCQCIWDGNSYVNAFGGGTEVVVRT

Maximum MFI [12]: 499 MFI
B6: F3.38.10-L2H3a (scFv, not shown: small tags and cut ends)
scFv: DIVMTQSPDSLAVSLGERATINCRSSQSLIHSDGNTYLQWYQQKPGQSPKLLIYKVSNRFSGVPDRFSGSGSGTDFTLTISSLQAEDVAVYYCSQTTHVPFTFGQGTKLEIKGGGGSGGGGSGGGGSEVQLVQSGAEVKKPGASVKVSCKASGYIFTDYYMNWVRQAPGQRLEWMGVINPKQGVISHNQKFKGRVTITVDKSANTAYMELSSLRSEDTAVYYCANYGSRFYAMDYWGQGTTVTVSS
